Data published in patent US20140087436.
Positions count from the first letter of the chain named.

Experiments:
Test in all cases: EMSA
[1] = target: T1, CbbR G98R (Ralstonia eutropha) (UniProt P42722); settings: fold change in affinity with 400 uM PEP vs no metabolite; RuBP 1.2, ATP 0.99
T1 sequence: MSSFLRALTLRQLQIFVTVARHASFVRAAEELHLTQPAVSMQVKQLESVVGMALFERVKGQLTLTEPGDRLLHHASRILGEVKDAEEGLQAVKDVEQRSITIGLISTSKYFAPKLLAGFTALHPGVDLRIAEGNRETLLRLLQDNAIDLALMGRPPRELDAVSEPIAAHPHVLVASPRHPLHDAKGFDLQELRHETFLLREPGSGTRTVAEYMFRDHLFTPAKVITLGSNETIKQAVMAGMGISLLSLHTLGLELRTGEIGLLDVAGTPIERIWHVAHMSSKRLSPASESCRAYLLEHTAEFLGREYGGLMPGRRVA

[2] = target: T2, CbbR R272Q (Ralstonia eutropha) (UniProt P42722); settings: fold change in affinity with 400 uM PEP vs no metabolite; RuBP 0.76, ATP 1.4; printed R272O in table
T2 sequence: T1 sequence with R98G, R272Q

[3] = target: T3, CbbR R135C R135C (Ralstonia eutropha) (UniProt P42722); settings: fold change in affinity with 400 uM PEP vs no metabolite; RuBP 0.59, ATP 1.3
T3 sequence: T1 sequence with R98G, R135C

[4] = target: T4, CbbR wild type (Ralstonia eutropha) (UniProt P42722); settings: fold change in affinity with 400 uM PEP vs no metabolite; RuBP 2.3, ATP 3.2, NADPH 1.5, RU5P 0.91, FBP 0.96
T4 sequence: T1 sequence with R98G

[5] = target: T5, CbbR R154H R154H (Ralstonia eutropha) (UniProt P42722); settings: fold change in affinity with 400 uM PEP vs no metabolite; RuBP 0.68, ATP 1.2
T5 sequence: T1 sequence with R98G, R154H

## cbb promoter probe, 246 bp chromosomal
[1]
  binding signal: 2.7 fold
[2]
  binding signal: 0.85 fold
[3]
  binding signal: 0.97 fold
[4]
  binding signal: 3.8 fold
[5]
  binding signal: 1.3 fold
